What was measured:
Experiment in all cases: Km, Vmax and Vmax/Km of substrates for plasmin (pig)
Assay type in all cases: biochemical, Porcine (pig)
[1] = substrate: CC(C)C[C@H](NC(=O)[C@H](N)C(C)C)C(=O)N[C@@H](CCCCN)C(=O)Nc1ccc(O)c(C(=O)O)c1; conditions: other: TABLE 2, CHA substrates, plasmin (pig), 2,6-xylenol 615 nm
[2] = substrate: CC(C)C[C@H](NC(=O)[C@H](N)C(C)C)C(=O)N[C@@H](CCCCN)C(=O)Nc1ccc([N+](=O)[O-])cc1
[3] = substrate: Cc1cc(C)c(S(=O)(=O)NCCCC[C@@H](N)C(=O)N[C@@H](Cc2ccccc2)C(=O)N[C@@H](CCCCN)C(=O)Nc2ccc(O)c(C(=O)O)c2)c(C)c1; conditions: other: TABLE 2, CHA substrates, plasmin (pig), 2,6-xylenol 615 nm
[4] = substrate: Cc1ccc(C(=O)NCCCC[C@@H](N)C(=O)N[C@@H](Cc2ccccc2)C(=O)N[C@@H](CCCCN)C(=O)Nc2ccc([N+](=O)[O-])cc2)cc1; conditions: other: TABLE 1, PNA substrates, plasmin (pig), 405 nm
[5] = substrate: Cc1ccc(CCNC(=O)CC[C@@H](N)C(=O)N[C@@H](Cc2ccccc2)C(=O)N[C@@H](CCCCN)C(=O)Nc2ccc(O)c(C(=O)O)c2)cc1; conditions: other: TABLE 2, CHA substrates, plasmin (pig), 2,6-xylenol 615 nm
[6] = substrate: Cc1ccc(CCNC(=O)CC[C@@H](N)C(=O)N[C@@H](Cc2ccccc2)C(=O)N[C@@H](CCCCN)C(=O)Nc2ccc([N+](=O)[O-])cc2)cc1; conditions: other: TABLE 1, PNA substrates, plasmin (pig), 405 nm
[7] = substrate: Cc1ccc(S(=O)(=O)NCC(=O)N2CCC[C@H]2C(=O)N[C@@H](CCCCN)C(=O)Nc2ccc([N+](=O)[O-])cc2)cc1
[8] = substrate: Cc1ccc(S(=O)(=O)NCCCC[C@@H](N)C(=O)N[C@@H](CC(C)C)C(=O)N[C@@H](CCCCN)C(=O)Nc2ccc([N+](=O)[O-])cc2)cc1; conditions: other: TABLE 1, PNA substrates, plasmin (pig), 405 nm
[9] = substrate: Cc1ccc(S(=O)(=O)NCCCC[C@@H](N)C(=O)N[C@@H](Cc2ccccc2)C(=O)N[C@@H](CCCCN)C(=O)Nc2ccc(O)c(C(=O)O)c2)cc1; conditions: other: TABLE 2, CHA substrates, plasmin (pig), 2,6-xylenol 615 nm
[10] = substrate: Cc1ccc(S(=O)(=O)NCCCC[C@@H](N)C(=O)N[C@@H](Cc2ccccc2)C(=O)N[C@@H](CCCCN)C(=O)Nc2ccc([N+](=O)[O-])cc2)cc1
[11] = substrate: Cc1ccc(S(=O)(=O)Oc2ccc(C[C@@H](N)C(=O)N[C@@H](CC(C)C)C(=O)N[C@@H](CCCCN)C(=O)Nc3ccc(O)c(C(=O)O)c3)cc2)cc1; conditions: other: TABLE 2, CHA substrates, plasmin (pig), 2,6-xylenol 615 nm
[12] = substrate: NCCCC[C@H](NC(=O)[C@H](Cc1ccccc1)NC(=O)[C@H](N)CCC(=O)NCCCCc1ccccc1)C(=O)Nc1ccc([N+](=O)[O-])cc1; conditions: other: TABLE 1, PNA substrates, plasmin (pig), 405 nm
[13] = substrate: NCCCC[C@H](NC(=O)[C@H](Cc1ccccc1)NC(=O)[C@H](N)CCCCNC(=O)OCc1ccccc1)C(=O)Nc1ccc(O)c(C(=O)O)c1; conditions: other: TABLE 2, CHA substrates, plasmin (pig), 2,6-xylenol 615 nm
[14] = substrate: NCCCC[C@H](NC(=O)[C@H](Cc1ccccc1)NC(=O)[C@H](N)CCCCNC(=O)c1ccccc1)C(=O)Nc1ccc(O)c(C(=O)O)c1; conditions: other: TABLE 2, CHA substrates, plasmin (pig), 2,6-xylenol 615 nm
[15] = substrate: NCCCC[C@H](NC(=O)[C@H](Cc1ccccc1)NC(=O)[C@H](N)CCCCNS(=O)(=O)c1ccc2ccccc2c1)C(=O)Nc1ccc(O)c(C(=O)O)c1; conditions: other: TABLE 2, CHA substrates, plasmin (pig), 2,6-xylenol 615 nm
[16] = substrate: NCCCC[C@H](NC(=O)[C@H](Cc1ccccc1)NC(=O)[C@H](N)CCCCNS(=O)(=O)c1ccc2ccccc2c1)C(=O)Nc1ccc([N+](=O)[O-])cc1; conditions: other: TABLE 1, PNA substrates, plasmin (pig), 405 nm
[17] = substrate: NCCCC[C@H](NC(=O)[C@H](Cc1ccccc1)NC(=O)[C@H](N)CCCCNS(=O)(=O)c1cccc2ccccc12)C(=O)Nc1ccc(O)c(C(=O)O)c1; conditions: other: TABLE 2, CHA substrates, plasmin (pig), 2,6-xylenol 615 nm
[18] = other: Porcine Plasmin, comparison table in description
[19] = other: TABLE 1, PNA substrates, plasmin (pig), 405 nm

B1: plasmin (pig) (Sus scrofa) (protein)
chain: RIYLSECKTGNGKNYRGTTSKTKSGVICQKWSVSSPHIPKYSPEKFPLAGLEENYCRNPDNDEKGPWCYTTDPETRFDYCDIPECEDECMHCSGEHYEGKISKTMSGIECQSWGSQSPHAHGYLPSKFPNKNLKMNYCRNPDGEPRPWCFTTDPNKRWEFCDIPRCTTPPPTSGPTYQCLKGRGENYRGTVSVTASGHTCQRWSAQSPHKHNRTPENFPCKNLEENYCRNPDGETAPWCYTTDSEVRWDYCKIPSCGSSTTSTEYLDAPVPPEQTPVAQDCYRGNGESYRGTSSTTITGRKCQSWVSMTPHRHEKTPGNFPNAGLTMNYCRNPDADKSPWCYTTDPRVRWEYCNLKKCSETEQQVTNFPAIAQVPSVEDLSEDCMFGNGKRYRGKRATTVAGVPCQEWAAQEPHRHSIFTPETNPRAGLEKNYCRNPDGDDNGPWCYTTNPQKLFDYCDVPQCVTSSFDCGKPKVEPKKCPARVVGGCVSIPHSWPWQISLRHRYGGHFCGGTLISPEWVLTAKHCLEKSSSPSSYKVILGAHEEYHLGEGVQEIDVSKLFKEPSEADIALLKLSSPAIITDKVIPACLPTPNYVVADRTACYITGWGETKGTYGAGLLKEARLPVIENKVCNRYEYLGGKVSPNELCAGHLAGGIDSCQGDSGGPLVCFEKDKYILQGVTSWGLGCALPNKPGVYVRVSRFVTWIEEIMRRN
Km [1]: 3210 µM | Km [2, 18]: 348 µM | Km [2, 19]: 348 µM | Km [3]: 272 µM | Km [4]: 15.5 µM | Km [5]: 417 µM | Km [6]: 39.4 µM | Km [7, 18]: 278 µM | Km [7, 19]: 278 µM | Km [8]: 189 µM | Km [9]: 206 µM | Km [10, 18]: 16 µM | Km [10, 19]: 15.8 µM | Km [11]: 1440 µM | Km [12]: 45.4 µM | Km [13]: 496 µM | Km [14]: 334 µM | Km [15]: 179 µM | Km [16]: 17.9 µM | Km [17]: 596 µM

Reference: patent US4605614A, “Method for measuring plasmin” (Nitto Boseki Co., Ltd., priority 1981, dated 1986)
